Reference: US20200140526A1 (UNIVERSITY OF ROCHESTER, published 2020)

Legend:
[1] = molecular target: T1, recombinant (r)HA of pH1N1 A/California/04/2009 (Protein Sciences Corp.) (influenza A virus A/California/04/2009 …, UniProt P26140 18-529)
[2] = molecular target: T1, recombinant (r)HA of pH1N1 …; remark: listed apart in the source

B1: KPF1 human monoclonal antibody (hmAb) (antibody, V domains shown)
VH: EVQLLESGGGLVQPGGSLRISCAASGSTFGDFAMSWVRQSPGRGLEWVSVTSAGGDRTYYADSVKGRFTISRDNSKNTLYLQMNSLRGEDTAMYYCARLDSSGFHYGRPGRNWGQGTLVTVSS
VL: DIQMTHSPPSLSASVGDRITITCQASQDISYYLIWYQQKPGKAPKPLIYDASNLEAGVPSRFSASGSGTDFTLTISSLQPEDLATYYCQQYKSLPYTFGQGTKLEIK
In the case of B1, the Kd [1] is reported as 0.178 nM, the koff [2] is reported as 3.42e-05 s⁻¹ and the kon [2] is reported as 192000 M⁻¹ s⁻¹.
